Reference: patent US20200095333A1 (published 2020)

Legend:
[1] = target: T1, sCD32A (soluble CD32A, negative control receptor) (UniProt P12318 34-217); test: SPR (BIAcore), receptor immobilised
T1 construct: extracellular domain
T1 sequence: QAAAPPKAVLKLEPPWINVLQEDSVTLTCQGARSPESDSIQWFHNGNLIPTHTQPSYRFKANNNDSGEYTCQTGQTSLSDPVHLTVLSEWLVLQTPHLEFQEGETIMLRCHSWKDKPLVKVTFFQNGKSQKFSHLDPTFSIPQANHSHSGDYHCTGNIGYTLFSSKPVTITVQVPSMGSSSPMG

[2] = target: T2, sCD32B (soluble CD32B, FcgammaRIIB) (human, UniProt P31994 43-217); test: SPR (BIAcore), receptor immobilised, diabody 6.25-200 nM
T2 construct: extracellular domain; also called soluble CD32B ectodomain
T2 sequence: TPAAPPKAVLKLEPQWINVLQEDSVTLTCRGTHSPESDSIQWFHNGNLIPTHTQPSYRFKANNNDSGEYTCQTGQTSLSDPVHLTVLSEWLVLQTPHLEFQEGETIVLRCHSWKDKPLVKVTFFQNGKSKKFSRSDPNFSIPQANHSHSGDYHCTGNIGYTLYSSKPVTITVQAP

[3] = target: T3, sCD16A (soluble CD16A, FcgammaRIIIA) (human, UniProt P08637 17-208); test: as above
T3 construct: extracellular domain; given only as soluble; used immobilised (SPR), coated, or biotin/HRP-labelled as probe (ELISA); also called CD16 antigen; sCD16A-Biotin
T3 sequence (P08637 17-208): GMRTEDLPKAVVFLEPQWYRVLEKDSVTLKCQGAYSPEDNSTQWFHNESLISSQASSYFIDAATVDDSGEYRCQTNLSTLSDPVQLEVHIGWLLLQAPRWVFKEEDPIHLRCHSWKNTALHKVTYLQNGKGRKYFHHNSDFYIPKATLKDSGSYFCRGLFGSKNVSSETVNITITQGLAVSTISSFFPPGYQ

B1: h2B6-h3G8 CBD (covalent bispecific diabody, constructs 1 and 2) (bispecific antibody)
chain 1: EIVLTQSPDFQSVTPKEKVTFTCRTSQSIGTNIHWYQQKPDQSPKLLIKEVSESISGVPSRFSGSGSGTDFTLTINSLEAEDAATYYCQQSNTWPFTFGGGTKVEIKGGGSGGGGQVTLRESGPALVKPTQTLTLTCTFSGFSLSTSGMGVGWIRQPPGKALEWLAHIWWDDDKRYNPALKSRLTISKDTSKNQVVLTMTNMDPVDTATYYCAQINPAWFAYWGQGTLVTVSSLGGC
chain 2: DIVMTQSPDSLAVSLGERATINCKASQSVDFDGDSFMNWYQQKPGQPPKLLIYTTSNLESGVPDRFSGSGSGTDFTLTISSLQAEDVAVYYCQQSNEDPYTFGQGTKLEIKGGGSGGGGQVQLVQSGAEVKKPGASVKVSCKASGYTFTNYWIHWVRQAPGQGLEWIGVIDPSDTYPNYNKKFKGRVTMTVVVSTSTAYMELRSLRSDDTAVYYCARNGDSDYYSGMDYWGQGTTVTVSSLGGC
notes: also called h2B6-h3G8 diabody; h2B6-h3G8 covalent heterodimer
In the case of B1, the binding result [1] is reported as “no binding (tested: 100 nM)”, the Kd [2] is reported as 15 nM and the Kd [3] is reported as 22.7 nM.
